Source: the supplement of paper PMC9112550, “Optimization of the antimicrobial peptide Bac7 by deep mutational scanning” (BMC Biology, 2022)

These sequences were tested on Escherichia coli TOP10 (assay: shrunken log2 fold change of peptide-encoding DNA abundance (4.5 h post-induction vs induction); higher = less antimicrobial activity (less host growth inhibition)). Conditions: time post-induction: 4.5 h; library: site-saturation at positions 5, 18, 19, 20.
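Also: peptides expressed intracellularly from a pBAD plasmid library in pooled LB shake-flask culture, induced with 0.3% L-arabinose, DNA abundance read by NGS, three biological replicates, DESeq2 with apeglm shrinkage.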

Question: For RRIRDRPPRLPRPRPRPDRAPRP, which “shrunken log2 fold change” value is on record?
Answer: 0.281

Question: With RRIRDRPPRLPRPRPRPDRMPRP as the sequence, how does the “shrunken log2 fold change” value read?
Answer: -0.00945

Question: RRIRDRPPRLPRPRPRPDRVPRP was tested. Which “shrunken log2 fold change” value did it give?
Answer: -0.0392

Question: How did the “shrunken log2 fold change” value turn out when RRIRDRPPRLPRPRPRPDTIPRP was run?
Answer: -0.0164

Question: For RRIRDRPPRLPRPRPRPDTYPRP, which “shrunken log2 fold change” value is on record?
Answer: -0.0814

Question: Which “shrunken log2 fold change” value does the source give for RRIRDRPPRLPRPRPRPEDYPRP here?
Answer: 0.0219

Question: For RRIRDRPPRLPRPRPRPEEEPRP, which “shrunken log2 fold change” value is on record?
Answer: 0.00884

Question: RRIRDRPPRLPRPRPRPEFTPRP was tested. Which “shrunken log2 fold change” value did it give?
Answer: 0.174

Question: For RRIRDRPPRLPRPRPRPEFYPRP, which “shrunken log2 fold change” value is on record?
Answer: 0.475

Question: RRIRDRPPRLPRPRPRPEHHPRP was tested. Which “shrunken log2 fold change” value did it give?
Answer: 0.155

Question: Which “shrunken log2 fold change” value does the source give for RRIRDRPPRLPRPRPRPEIMPRP here?
Answer: 0.245

Question: For RRIRDRPPRLPRPRPRPEMDPRP, which “shrunken log2 fold change” value is on record?
Answer: 0.0766

Question: How did the “shrunken log2 fold change” value turn out when RRIRDRPPRLPRPRPRPENGPRP was run?
Answer: 0.0234

Question: Which “shrunken log2 fold change” value does the source give for RRIRDRPPRLPRPRPRPENMPRP here?
Answer: 0.0225

Question: For RRIRDRPPRLPRPRPRPEPTPRP, which “shrunken log2 fold change” value is on record?
Answer: 0.885

Question: RRIRDRPPRLPRPRPRPEPVPRP was tested. Which “shrunken log2 fold change” value did it give?
Answer: 0.576

Question: Which “shrunken log2 fold change” value does the source give for RRIRDRPPRLPRPRPRPEQCPRP here?
Answer: -0.00146

Question: Which “shrunken log2 fold change” value does the source give for RRIRDRPPRLPRPRPRPERNPRP here?
Answer: 0.278

Question: How did the “shrunken log2 fold change” value turn out when RRIRDRPPRLPRPRPRPESEPRP was run?
Answer: 0.444

Question: Which “shrunken log2 fold change” value does the source give for RRIRDRPPRLPRPRPRPEVEPRP here?
Answer: 1.68

Question: RRIRDRPPRLPRPRPRPEVPPRP was tested. Which “shrunken log2 fold change” value did it give?
Answer: 0.0916

Question: With RRIRDRPPRLPRPRPRPEYVPRP as the sequence, how does the “shrunken log2 fold change” value read?
Answer: -0.00373

Question: With RRIRDRPPRLPRPRPRPFAEPRP as the sequence, how does the “shrunken log2 fold change” value read?
Answer: 0.242

Question: With RRIRDRPPRLPRPRPRPFAQPRP as the sequence, how does the “shrunken log2 fold change” value read?
Answer: 0.0821

Question: With RRIRDRPPRLPRPRPRPFCCPRP as the sequence, how does the “shrunken log2 fold change” value read?
Answer: 0.26

Question: How did the “shrunken log2 fold change” value turn out when RRIRDRPPRLPRPRPRPFCTPRP was run?
Answer: -0.0992

Question: How did the “shrunken log2 fold change” value turn out when RRIRDRPPRLPRPRPRPFCVPRP was run?
Answer: 0.483

Question: With RRIRDRPPRLPRPRPRPFDNPRP as the sequence, how does the “shrunken log2 fold change” value read?
Answer: 0.0553

Question: For RRIRDRPPRLPRPRPRPFDSPRP, which “shrunken log2 fold change” value is on record?
Answer: -0.0169

Question: RRIRDRPPRLPRPRPRPFEMPRP was tested. Which “shrunken log2 fold change” value did it give?
Answer: 0.182

Question: RRIRDRPPRLPRPRPRPFGCPRP was tested. Which “shrunken log2 fold change” value did it give?
Answer: -0.109

Question: Which “shrunken log2 fold change” value does the source give for RRIRDRPPRLPRPRPRPFHCPRP here?
Answer: -0.194

Question: Which “shrunken log2 fold change” value does the source give for RRIRDRPPRLPRPRPRPFHDPRP here?
Answer: -0.157

Question: For RRIRDRPPRLPRPRPRPFHHPRP, which “shrunken log2 fold change” value is on record?
Answer: -0.886

Question: With RRIRDRPPRLPRPRPRPFKDPRP as the sequence, how does the “shrunken log2 fold change” value read?
Answer: -0.00443

Question: For RRIRDRPPRLPRPRPRPFKEPRP, which “shrunken log2 fold change” value is on record?
Answer: 0.0108

Question: For RRIRDRPPRLPRPRPRPFLEPRP, which “shrunken log2 fold change” value is on record?
Answer: -0.192

Question: RRIRDRPPRLPRPRPRPFLQPRP was tested. Which “shrunken log2 fold change” value did it give?
Answer: -0.091

Question: Which “shrunken log2 fold change” value does the source give for RRIRDRPPRLPRPRPRPFNPPRP here?
Answer: -0.509

Question: Which “shrunken log2 fold change” value does the source give for RRIRDRPPRLPRPRPRPFNRPRP here?
Answer: 0.00902

Question: RRIRDRPPRLPRPRPRPFPQPRP was tested. Which “shrunken log2 fold change” value did it give?
Answer: 0.0191

Question: With RRIRDRPPRLPRPRPRPFPWPRP as the sequence, how does the “shrunken log2 fold change” value read?
Answer: -0.192

Question: With RRIRDRPPRLPRPRPRPFRVPRP as the sequence, how does the “shrunken log2 fold change” value read?
Answer: -0.101

Question: How did the “shrunken log2 fold change” value turn out when RRIRDRPPRLPRPRPRPFVGPRP was run?
Answer: -0.0346

Question: For RRIRDRPPRLPRPRPRPFWGPRP, which “shrunken log2 fold change” value is on record?
Answer: 0.127

Question: For RRIRDRPPRLPRPRPRPFWVPRP, which “shrunken log2 fold change” value is on record?
Answer: -0.222

Question: With RRIRDRPPRLPRPRPRPGECPRP as the sequence, how does the “shrunken log2 fold change” value read?
Answer: -0.0602

Question: RRIRDRPPRLPRPRPRPGFDPRP was tested. Which “shrunken log2 fold change” value did it give?
Answer: 0.926

Question: With RRIRDRPPRLPRPRPRPGHEPRP as the sequence, how does the “shrunken log2 fold change” value read?
Answer: -0.00201

Question: For RRIRDRPPRLPRPRPRPGHNPRP, which “shrunken log2 fold change” value is on record?
Answer: -0.0961

Question: Which “shrunken log2 fold change” value does the source give for RRIRDRPPRLPRPRPRPGKFPRP here?
Answer: -0.0736

Question: For RRIRDRPPRLPRPRPRPGLEPRP, which “shrunken log2 fold change” value is on record?
Answer: 1

Question: For RRIRDRPPRLPRPRPRPGNCPRP, which “shrunken log2 fold change” value is on record?
Answer: 0.153

Question: For RRIRDRPPRLPRPRPRPGNSPRP, which “shrunken log2 fold change” value is on record?
Answer: -0.0582

Question: For RRIRDRPPRLPRPRPRPGNWPRP, which “shrunken log2 fold change” value is on record?
Answer: -0.0358

Question: Which “shrunken log2 fold change” value does the source give for RRIRDRPPRLPRPRPRPGPAPRP here?
Answer: 0.608

Question: How did the “shrunken log2 fold change” value turn out when RRIRDRPPRLPRPRPRPGPMPRP was run?
Answer: -0.00245

Question: With RRIRDRPPRLPRPRPRPGQFPRP as the sequence, how does the “shrunken log2 fold change” value read?
Answer: -0.166

Question: RRIRDRPPRLPRPRPRPGRRPRP was tested. Which “shrunken log2 fold change” value did it give?
Answer: 0.311

Question: How did the “shrunken log2 fold change” value turn out when RRIRDRPPRLPRPRPRPGRSPRP was run?
Answer: 0.0526

Question: Which “shrunken log2 fold change” value does the source give for RRIRDRPPRLPRPRPRPGSAPRP here?
Answer: 0.238

Question: With RRIRDRPPRLPRPRPRPGSRPRP as the sequence, how does the “shrunken log2 fold change” value read?
Answer: 0.0273

Question: With RRIRDRPPRLPRPRPRPGSYPRP as the sequence, how does the “shrunken log2 fold change” value read?
Answer: -0.0689

Question: RRIRDRPPRLPRPRPRPGTPPRP was tested. Which “shrunken log2 fold change” value did it give?
Answer: 0.223

Question: How did the “shrunken log2 fold change” value turn out when RRIRDRPPRLPRPRPRPGTTPRP was run?
Answer: 0.427

Question: With RRIRDRPPRLPRPRPRPGVAPRP as the sequence, how does the “shrunken log2 fold change” value read?
Answer: 0.76

Question: With RRIRDRPPRLPRPRPRPGWNPRP as the sequence, how does the “shrunken log2 fold change” value read?
Answer: 0.69

Question: Which “shrunken log2 fold change” value does the source give for RRIRDRPPRLPRPRPRPHACPRP here?
Answer: 0.00242

Question: With RRIRDRPPRLPRPRPRPHAKPRP as the sequence, how does the “shrunken log2 fold change” value read?
Answer: 0.0435

Question: RRIRDRPPRLPRPRPRPHCDPRP was tested. Which “shrunken log2 fold change” value did it give?
Answer: -0.0666

Question: RRIRDRPPRLPRPRPRPHCGPRP was tested. Which “shrunken log2 fold change” value did it give?
Answer: 0.00511

Question: How did the “shrunken log2 fold change” value turn out when RRIRDRPPRLPRPRPRPHDGPRP was run?
Answer: 0.1

Question: How did the “shrunken log2 fold change” value turn out when RRIRDRPPRLPRPRPRPHEMPRP was run?
Answer: -0.0853

Question: For RRIRDRPPRLPRPRPRPHESPRP, which “shrunken log2 fold change” value is on record?
Answer: -0.0121

Question: Which “shrunken log2 fold change” value does the source give for RRIRDRPPRLPRPRPRPHFVPRP here?
Answer: -0.193
